# Data taken from patent US20230212319A1, “NOVEL ANTIGEN BINDING DOMAINS AND SYNTHETIC ANTIGEN RECEPTORS INCORPORATING THE SAME” (University of Southern California, priority 2020, published 2023).
# Entries after “also recorded” stand apart in the source; their conditions may differ.
# B1: 22651 (protein)
# chain: MALPVTALLLPLALLLHAARPDIQMTQSPSSLSASVGDRVTITCKASDHINNWLAWYQQKPGQAPKLLIYGATTLETGVPSRFSGSGSGTDYTLTISSLQPEDFATYYCQQSWNTPWTFGQGTKLEIKRLEADVSPKPTIFLPSIAETKLQKAGTYLCLLEKFFPDVIKIHWQEKKSNTILGSQEGNTMKTNDTYMKFSWLTVPEKSLDKEHRCIVRHENNKNGVDQEIIFPPIKTDVITMDPKDNCSKDANDTLLLQLTNTSAYYMYLLLLLKSVVYFAIITCCLLRRTAFCCNGEKSRAKRSGSGATNFSLLKQAGDVEENPGPTSMDWIWRILFLVGAATGAHSFEQVQLQQPGAELVKPGASVKMSCKASGYAFSSYWINWMKQKPGQGLEWIGQIYPGDGDTNYNGKFKGRATLTADTSSSTAYMQLSSLTSEDSAVYFCARSITTVVGCAMDYWGQGTSVTVSSTRPHTKPSVFVMKNGTNVACLVKEFYPKDIRINLVSSKKITEFDPAIVISPSGKYNAVKLGKYEDSNSVTCSVQHDNKTVHSTDFEVKTDSTDHVKPKETENTKQPSKSCHKPKAIVHTEKVNMMSLTVLGLRMLFAKTVAVNFLLTAKLFFLRAKRSGSGVKQTLNFDLLKLAGDVESNPGPSRGHMTEYKPTVRLATRDDVPRAVRTLAAAFADYPATRHTVDPDRHIERVTELQELFLTRVGLDIGKVWVADDGAAVAVWTTPESVEAGAVFAEIGPRMAELSGSRLAAQQQMEGLLAPHRPKEPAWFLATVGVSPDHQGKGLGSAVVLPGVEAAERAGVPAFLETSAPRNLPFYERLGFTVTADVEVPEGPRTWCMTRKPGA
# B2: 9762 (protein)
# chain: MALPVTALLLPLALLLHAARPDIQMTQSPSSLSASVGDRVTITCKASQDVGTAVDWYQQKPGKAPKLLIYWASTRHTGVPSRFSGSGSGTDFTLTISSLQPEDFATYYCQQYNSYPLTFGQGTKVEIKRLEDLKNVFPPEVAVFEPSKAEIAHTQKATLVCLATGFYPDHVELSWWVNGKEVHSGVCTDPQPLKEQPALNDSRYCLSSRLRVSATFWQNPRNHFRCQVQFYGLSENDEWTQDRAKPVTQIVSAEAWGRADCGITSASYHQGVLSATILYEILLGKATLYAVLVSALVLMAMVKRKDSRGRAKRSGSGATNFSLLKQAGDVEENPGPTSMDWIWRILFLVGAATGAHSFEEVQLVESGGGLVQPGGSLRLSCAASGYTFTEYTIHWVRQAPGKGLEWVANINPNNGGTTYNQKFEDRFTISRDNSKNTLYLQMNSLRAEDTAVYYCARGWNFDYWGQGTLVTVSSTRIQNPDPAVYQLRDSKSSDKSVCLFTDFDSQTNVSQSKDSDVYITDKCVLDMRSMDFKSNSAVAWSNKSDFACANAFNNSIIPEDTFFPSSDVPCDVKLVEKSFETDTNLNFQNLSVIGFRILLLKVAGFNLLMTLRLWSSRAKRSGSGVKQTLNFDLLKLAGDVESNPGPSRGHMTEYKPTVRLATRDDVPRAVRTLAAAFADYPATRHTVDPDRHIERVTELQELFLTRVGLDIGKVWVADDGAAVAVWTTPESVEAGAVFAEIGPRMAELSGSRLAAQQQMEGLLAPHRPKEPAWFLATVGVSPDHQGKGLGSAVVLPGVEAAERAGVPAFLETSAPRNLPFYERLGFTVTADVEVPEGPRTWCMTRKPGA
# modifications: Synthetic Polynucloetide
# B3: 22641 (protein)
# chain: MALPVTALLLPLALLLHAARPDIQMTQSPSSLSASVGDRVTITCKASDHINNWLAWYQQKPGQAPKLLIYGATTLETGVPSRFSGSGSGTDYTLTISSLQPEDFATYYCQQSWNTPWTFGQGTKLEIKRLEAEISHTQKATLVCLATGFYPDHVELSWWVNGKEVHSGVCTDPQPLKEQPALNDSRYCLSSRLRVSATFWQNPRNHFRCQVQFYGLSENDEWTQDRAKPVTQIVSAEAWGRADCGFTSESYQQGVLSATILYEILLGKATLYAVLVSALVLMAMVKRKDSRGRAKRSGSGATNFSLLKQAGDVEENPGPTSMDWIWRILFLVGAATGAHSFEQVQLQQPGAELVKPGASVKMSCKASGYAFSSYWINWMKQKPGQGLEWIGQIYPGDGDTNYNGKFKGRATLTADTSSSTAYMQLSSLTSEDSAVYFCARSITTVVGCAMDYWGQGTSVTVSSTRDKSVCLFTDFDSQTNVSQSKDSDVYITDKCVLDMRSMDFKSNSAVAWSNKSDFACANAFNNSIIPEDTFFPSPESSCDVKLVEKSFETDTNLNFQNLSVIGFRILLLKVAGFNLLMTLRLWSSRAKRSGSGVKQTLNFDLLKLAGDVESNPGPSRGHMTEYKPTVRLATRDDVPRAVRTLAAAFADYPATRHTVDPDRHIERVTELQELFLTRVGLDIGKVWVADDGAAVAVWTTPESVEAGAVFAEIGPRMAELSGSRLAAQQQMEGLLAPHRPKEPAWFLATVGVSPDHQGKGLGSAVVLPGVEAAERAGVPAFLETSAPRNLPFYERLGFTVTADVEVPEGPRTWCMTRKPGA
# B4: 9970 (protein)
# chain: MALPVTALLLPLALLLHAARPDIVMTQSHKFMSTSVGDRVSIICKASQDVGTAVDWYQQKPGQSPKLLIYWASTRHTGVPDRFTGSGSGTDFTLAITNVQSEDLADYFCQQYNSYPLTFGAGTKLEIKRLEDLKNVFPPEVAVFEPSEAEISHTQKATLVCLATGFYPDHVELSWWVNGKEVHSGVCTDPQPLKEQPALNDSRYCLSSRLRVSATFWQNPRNHFRCQVQFYGLSENDEWTQDRAKPVTQIVSAEAWGRADCGFTSESYQQGVLSATILYEILLGKATLYAVLVSALVLMAMVKRKDSRGRAKRSGSGATNFSLLKQAGDVEENPGPTSMDWIWRILFLVGAATGAHSFEEVQLVESGGGLVQPGGSLRLSCAASGYTFTEYTIHWVRQAPGKGLEWVANINPNNGGTTYNQKFEDRFTISRDNSKNTLYLQMNSLRAEDTAVYYCARGWNFDYWGQGTLVTVSSTRIQNPDPAVYQLRDSKSSDKSVCLFTDFDSQTNVSQSKDSDVYITDKCVLDMRSMDFKSNSAVAWSNKSDFACANAFNNSIIPEDTFFPSPESSCDVKLVEKSFETDTNLNFQNLSVIGFRILLLKVAGFNLLMTLRLWSS
# modifications: Synthetic Polynucloetide
# B5: 9901 (protein)
# chain: MALPVTALLLPLALLLHAARPDIQMTQSPSSLSASVGDRVTITCKASQDVGTAVDWYQQKPGKAPKLLIYWASTRHTGVPSRFSGSGSGTDFTLTISSLQPEDFATYYCQQYNSYPLTFGQGTKVEIKRLEDLKNVFPPEVAVFEPSEAEISHTQKATLVCLATGFYPDHVELSWWVNGKEVHSGVCTDPQPLKEQPALNDSRYCLSSRLRVSATFWQNPRNHFRCQVQFYGLSENDEWTQDRAKPVTQIVSAEAWGRADCGFTSESYQQGVLSATILYEILLGKATLYAVLVSALVLMAMVKRKDSRGRAKRSGSGATNFSLLKQAGDVEENPGPTSMDWIWRILFLVGAATGAHSFEEVQLQQSGPELVKPGTSVRISCKTSGYTFTEYTIHWVKQSHGKSLEWIGNINPNNGGTTYNQKFEDKATLTVDKSSSTAYMELRSLTSEDSAVYYCAAGWNFDYWGQGTTLTVSSTRIQNPDPAVYQLRDSKSSDKSVCLFTDFDSQTNVSQSKDSDVYITDKCVLDMRSMDFKSNSAVAWSNKSDFACANAFNNSIIPEDTFFPSPESSCDVKLVEKSFETDTNLNFQNLSVIGFRILLLKVAGFNLLMTLRLWSS
# modifications: Synthetic Polynucloetide
# Assays:
# RAJI cells = assay: JNG (Jurkat NFAT-GFP) cells expressing SAR: GFP induction on co-culture with RAJI; settings: CD19 hu-mROO5-1 SIRs with deletion mutants of TCR constant chains; flow cytometry
# LNCaP-LucPPe cells = assay: LNCaP-LucPPE xenograft in NSG mice, with rechallenge; assay type: in vivo; settings: for tumor control (bioluminescence imaging, caliper tumor volume), LNCaP-LucPPE xenograft: 1 × 10^6 LNCaP-LucPPe s.c., 17 days later 3 × 10^6 T cells i.v., male NSG mice
Molecule,Jurkat-NFAT ASSA Y: Raji (RAJI cells),"tumor control (bioluminescence imaging, caliper tumor volume), LNCaP-LucPPE xenograft (LNCaP-LucPPe cells)","survival, LNCaP-LucPPE xenograft (LNCaP-LucPPe cells; mouse, in vivo)"
B1,significant residual activity,,
B2,,statistically significant and effective tumor control,
B3,significant GFP induction,,
B4,,statistically significant and effective tumor control,
B5,,effective control of tumor; also recorded: statistically significant and effective tumor control,improvement in survival
